Results as given in US20230131847A1, “RECOMBINASE COMPOSITIONS AND METHODS OF USE” (FLAGSHIP PIONEERING INNOVATIONS VI, LLC, priority 2019, published 2023).

Assays:
[1] = test system: HEK293T landing pad cells; experiment: Dual AAV delivery of serine integrase and template DNA, ddPCR integration assay; type: cell-based, human
Description: FIGS. 3A and 3B: Dual AAV delivery of serine integrase and template DNA to mammalian cells. (A) Schematic representation of experiment. BXB1 serine recombinase and template DNA are co-delivered as separate AAV viral vectors into BXB landing pad cell lines. (B) Droplet digital PCR (ddPCR) assay to assess integration (% CNV/landing pad) of BXB1 serine recombinase and transgene into attP-attP* landing pad cell line 3 days and 7 days post-transduction. Black dots (to the right of each pair of gray dots) indicate template only samples and fall at 0% on the y-axis. Gray dots (to the left of each pair of black dots) indicate template+BXB1 integrase and fall between 1-6% on the y-axis. […]
Two transgene configurations are assessed to determine the integration, stability, and expression using different AAV donor formats (FIG. 1B): 1) template comprising attP* or attB* that utilizes formation of double-stranded circularized DNA following AAV transduction in the cell nucleus; or 2) template comprising double attachment sites, attP-attP* or attB-attB*, that can integrate into the mammalian genome independent of double-stranded circularization of the DNA following AAV transduction in the cell nucleus. […]

[2] = test system: HEK293T landing pad cells; experiment: mRNA delivery of integrase and AAV delivery of template DNA, ddPCR integration assay; type: cell-based, human
Description: FIGS. 4A and 4B: mRNA delivery of BXB1 integrase and AAV delivery of template DNA to mammalian cells. (A) Schematic representation of experiment. mRNA delivery of BXB1 serine recombinase and AAV delivery of template DNA into BXB1 landing pad cell lines. (B) Droplet digital PCR (ddPCR) assay to assess integration (% CNV/landing pad) of BXB1 serine recombinase and transgene into attP-attP* landing pad cell line 3 days post mRNA transfection/AAV transduction. Black dots (to the right of each pair of gray dots) indicate template only samples and fall at 0% on the y-axis. Gray dots (to the left of each pair of black dots) indicate template+BXB1 integrase and fall at greater than 0% on the y-axis.
More specifically, a recombinase, e.g., an integrase with an amino acid sequence from Table 3A, 3B, or 3C, e.g., the Bxb1 recombinase protein (Table 3A Line No. 204), and a template DNA comprising the associated attachment site, e.g., a sequence from a LeftRegion or RightRegion of Table 2A, 2B, or 2C, e.g., the LeftRegion from Table 2A Line No. 204, are introduced into a HEK293T landing pad cell line. In this example, the recombinase is delivered as mRNA encoding the recombinase, and the template DNA is delivered via AAV.
HEK293T landing pad cells containing either the attP-attP* or attB-attB* landing pad sites (see Example 14) were seeded in a 48-well plate format at 40,000 cells/well. […] The timing of delivery was also assessed by the following conditions: 1) mRNA delivery of BXB1 integrase and AAV delivery of template DNA on the same day, 2) mRNA delivery of BXB1 integrase 24 h prior to AAV delivery of template DNA, 3) AAV delivery of template DNA 24 h prior to mRNA delivery of BXB1 integrase. ddPCR was performed to assess the integration mediated through mRNA delivery of a serine integrase and AAV delivery of a template comprising its attachment, ddPCR was performed to assay for integration (% CNV/landing pad) on day 3 post-transfection of mRNA and post-transduction of AAV. ˜2-4% integration was detected using an attP* donor to attB-attB* landing pad 293T cell line (FIG. 4B). […]

B1: BXB1 integrase: Bxb1 recombinase protein (Table 3A Line No. 204), delivered as AAV vector or mRNA (protein, UniProt P25426 1-333, looked up)
Integrase: MDAEAWLASEKRLIDNEEWTPPAEREKKAAASAITVEEYTKKWIAERDLAGGTKDLYSTHARKRIYPVLGDTPVAEMTPALVRAWWAGMGKQYPTARRHAYNVLRAVMNTAVEDKLVSENPCRIEQKAPAERDVEALTPEELDVVAGEVFEHYRVAVYILAWTSLRFGELIEIRRKDIMDDGETMKLRVRRGPARVGEKIVVGNTKTVRSKRPVTVPPHVAAMIRAHMADRTKMNKGPEALLVTTTRGQRLSKSAFTRSLKKGYAKIGRPDLRIHDLRAVGATLAAQAGATTKELMVRLGHTTPRMAMKYQMASAARDEEIARRMSELAGITP
[1]; dual AAV2, attB* donor to attP-attP* landing pad cell line, day 3 and day 7 post-transduction, integrase MOI about 25,000, template MOI about 75,000
  integration (% CNV/landing pad) by ddPCR: ~5%
[1]; dual AAV, template+BXB1 integrase, attP-attP* landing pad cell line, 3 days and 7 days post-transduction
  integration (% CNV/landing pad) by ddPCR, FIG. 3B: 1-6%
[2]; AAV delivery of attachment site donor 24 h prior to mRNA delivery of BXB1 integrase, day 3
  highest % CNV/landing pad by ddPCR: ~4%
[2]; integrase mRNA about 1 μg + AAV template MOI about 75,000, attP* donor to attB-attB* landing pad 293T cell line, day 3
  integration (% CNV/landing pad) by ddPCR: 2-4%
[2]; template+BXB1 integrase, attP-attP* landing pad cell line, 3 days post mRNA transfection/AAV transduction
  integration (% CNV/landing pad) by ddPCR, FIG. 4B: greater than 0%
